Measurements from patent publication US20260028405A1 (ICAHN SCHOOL OF MEDICINE AT MOUNT SINAI, published 2026).

B1: biotinylated human CD64 protein (receptor, UniProt P12314 16-288, looked up)
chain: QVDTTKAVITLQPPWVSVFQEETVTLHCEVLHLPGSSSTQWFLNGTATQTSTPSYRITSASVNDSGEYRCQRGLSGRSDPIQLEIHRGWLLLQVSSRVFTEGEPLALRCHAWKDKLVYNVLYYRNGKAFKFFHWNSNLTILKTNISHNGTYHCSGMGKHRYTSAGISVTVKELFPAPVLNASVTSPLLEGNLVTLSCETKLLLQRPGLQLYFSFYMGSKTLRGRNTSSEYQILTARREDSGLYWCEAATEDGNVLKRSPELELQVLGLQLPTP
modifications: biotinylated
notes: also called human Fc receptor CD64
B2: anti-CD16a antibody F9H4 (antibody, V domains shown)
VH: QVQLQQPGSELVRPGASVKLSCKASGYTFTSYWMHWVKQRHGQGLEWIGNIYPGSGSTNYDEKFKSKGTLTVDTSSSTAYMHLGSLTSEDSAVYYCTMRYGGYYGYYFDYWGQGTTLTVSS
VL: EIVLTQSPTTMAASPGEKITITCSTTSSISSNYLHWYQQKPGFSPKLLIYRTSNLASGVPARFSGSGSGTSYSLTIGTMEAEDVATYYCQQGSSIPLTFGAGTKLELKR
notes: also called F9H14
B3: anti-CD16a antibody 3G8 (antibody)
chain 1: QVTLKESGPGILQPSQTLSLTCSFSGFSLRTSGMGVGWIRQPSGKGLEWLAHIWWDDDKRYNPALKSRLTISKDTSSNQVFLKIASVDTADTATYYCAQINPAWFAYWGQGTLVTVS
chain 2: DIVLTQSPASLAVSLGQRATISCKASQSVDFDGDSFMNWYQQKPGQPPKLLIYTTSNLESGIPARFSASGSGTDFTLNIHPVEEEDTATYYCQQSNEDPYTFGGGTKLELK
B4: chF9H4-DANA, chimeric F9H4 with hIgG1 CH2-CH3 carrying D265A N297A (antibody)
heavy: QVQLQQPGSELVRPGASVKLSCKASGYTFTSYWMHWVKQRHGQGLEWIGNIYPGSGSTNYDEKFKSKGTLTVDTSSSTAYMHLGSLTSEDSAVYYCTMRYGGYYGYYFDYWGQGTTLTVSSAKTTAPSVYPLAPVCGDTTGSSVTLGCLVKGYFPEPVTLTWNSGSLSSGVHTFPAVLQSDLYTLSSSVTVTSSTWPSQSITCNVAHPASSTKVDKKIEPRGPTIKPCPPCKCPAPELLGGPSVFLFPPKPKDTLMISRTPEVTCVVVAVSHEDPEVKFNWYVDGVEVHNAKTKPREEQYASTYRVVSVLTVLHQDWLNGKEYKCKVSNKALPAPIEKTISKAKGQPREPQVYTLPPSRDELTKNQVSLTCLVKGFYPSDIAVEWESNGQPENNYKTTPPVLDSDGSFFLYSKLTVDKSRWQQGNVFSCSVMHEALHNHYTQKSLSLSPGK
light: EIVLTQSPTTMAASPGEKITITCSTTSSISSNYLHWYQQKPGFSPKLLIYRTSNLASGVPARFSGSGSGTSYSLTIGTMEAEDVATYYCQQGSSIPLTFGAGTKLELKRADAAPTVSIFPPSSEQLTSGGASVVCFLNNFYPKDINVKWKIDGSERQNGVLNSWTDQDSKDSTYSMSSTLTLTKDEYERHNSYTCEATHKTSTSPIVKSFNRNEC
notes: also called chF8H4-DANA; F9H4-hIG1-DANA; copies: 2 + 2

Tests used:
hIgG wild type = biological target: T1, hIgG wild type; assay: ELISA, immobilised antibody detected with biotinylated human CD64
T1 construct: it may be the same as hIgG1
Description: (§1) FIGS. 7A, 7B, and 7C illustrate the properties of chF9H4-DANA, a chimeric antibody in which the variable and the CH1 region of F9H4 is fused to the CH2 and CH3 regions of hIgG1 comprising a D265A N297A (DANA) mutation (labeled as “F9H4-hIG1-DANA” in FIGS. 7A, 7B, and 7C). FIG. 7A. The indicated antibodies were immobilized in ELISA plates and detected by biotinylated human CD64 protein, which was added in the indicated concentrations. Highest absorbance for hIgG wild type. FIG. 7B. ELISA for reactivity of antibodies against human CD16a. Highest absorbance for F9H4-hIG1-DANA. FIG. 7C. Inhibition of CD16a shedding assay with primary NK cells that were treated with 30 ng/mL PMA to induce CD16a shedding. Highest absorbance for F9H4-hIG1-DANA. Data represent three independent experiments (FIGS. 7A, 7B, and 7C) and mean+/−SD of triplicates even though the SD bars are so small that cannot be seen (FIG. 7C).

human CD16a protein [1] = biological target: T2, human CD16a protein (human, UniProt P08637 17-208, biotinylated in the bead assay (FIG. 4B, 4C)); assay: ELISA on human CD16a protein
T2 construct: construct not described; also called biotinylated CD16a; FcγRIIIa

[2] = biological target: T3, recombinant CD16a D2 domain (UniProt P08637 107-208, limits assumed); assay: ELISA, immobilised CD16a D2 domain [panel D2]
T3 construct: domain: D2
Description: FIGS. 4A, 4B, 4C, 4D, 4E, and 4F illustrate the characterization of F9H4. FIG. 4A. An ELISA was performed with immobilized F9H4 or the positive controls, respectively. For detection, biotinylated antibodies against the indicated subclasses of murine IgG were used. From left to right: Anti-mIgG1, anti-mIgG2a, anti-mIgG2b, anti-mIgG3. FIG. 4B. Validation of a bead assay to assess CD16a binding to hIgG1. […] Two left peaks (overlapping): uncoated and DANA mutant. Right peak: hIgG1. FIG. 4C. Bead assay for CD16a binding to hIgG1. hIgG1-coated beads were incubated with 1 μg/mL biotinylated CD16a plus the indicated antibodies, followed by incubation with PE-labelled streptavidin and analysis by flow cytometry. Peaks from left to right: 30, 10, 3, and 1 μg/mL. FIG. 4D. Jukart cells were engineered to express human CD16a and luciferase in response to CD16a engagement. Cells were treated overnight with the indicated antibodies, followed by addition of luciferin and analyses in plate reader. […] Data represent two (FIG. 4D) or three (FIGS. 4A, 4B, 4C, and 4F) independent experiments, are mean+/−SE of quadruplicates (FIG. 4 D), and were analyzed by non-linear regression (FIGS. 4D and 4F).
To shed light into the mechanism by which F9H4 inhibit the cleavage, the two immunoglobulin-like domains, D1 and D2 of CD16a were examined. […] It was determined by ELISA that F9H4 binds full length CD16a and D1, but not D2. […]

[3] = biological target: human CD16a on cells (primary NK cells; engineered reporter cells) (human, UniProt P08637 17-254); assay: cell-based or functional assay
human CD16a protein [4] = biological target: T2, human CD16a protein; assay: ELISA on human CD16a
[5] = biological target: B1; assay: ELISA, immobilised antibody detected with biotinylated human CD64
Description: as §1

T2 sequence (P08637 17-208 limits assumed): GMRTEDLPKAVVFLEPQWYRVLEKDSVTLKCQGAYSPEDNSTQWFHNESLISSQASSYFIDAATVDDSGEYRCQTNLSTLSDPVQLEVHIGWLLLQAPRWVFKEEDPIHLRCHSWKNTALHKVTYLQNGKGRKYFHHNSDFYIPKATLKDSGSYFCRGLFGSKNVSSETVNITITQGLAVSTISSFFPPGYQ
T3 sequence (P08637 107-208 limits assumed): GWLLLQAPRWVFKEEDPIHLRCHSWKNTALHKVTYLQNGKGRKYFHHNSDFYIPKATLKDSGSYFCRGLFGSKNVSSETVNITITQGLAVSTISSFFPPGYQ
Chain of human CD16a on cells (primary NK cells; engineered reporter cells) (P08637 17-254, change not shown): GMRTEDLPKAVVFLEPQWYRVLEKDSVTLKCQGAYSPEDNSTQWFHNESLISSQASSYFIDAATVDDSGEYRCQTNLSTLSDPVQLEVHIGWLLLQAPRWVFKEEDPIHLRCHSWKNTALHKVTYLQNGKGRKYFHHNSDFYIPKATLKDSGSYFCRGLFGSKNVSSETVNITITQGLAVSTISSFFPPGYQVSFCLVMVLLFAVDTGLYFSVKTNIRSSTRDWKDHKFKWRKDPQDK

Binder: B1
EC50 (read off the curve) (hIgG wild type): ~0.006 µg/mL

Binder: B2
EC50 (read off the curve) (human CD16a protein [1]): ~0.001 µg/mL
binding result [2]: no binding (tested: 10 µg/mL)

Binder: B3
EC50 (read off the curve), luciferase reporter of CD16a engagement (RLU) [3]: ~0.1 µg/mL

Binder: B4
EC50 (read off the curve) (human CD16a protein [4]): ~0.04 µg/mL
binding result [5]: no binding (tested: 1 µg/mL)
